The values that follow come from patent US20250066503A1, “CELL INJURY INDUCING THERAPEUTIC DRUG FOR USE IN CANCER THERAPY” (CHUGAI SEIYAKU KABUSHIKI KAISHA, priority 2016, published 2025).

Numbering of substitutions follows the chain as printed.

This experiment addresses T1, soluble human CD3 epsilon chain (human, UniProt P07766 23-126).
T1 construct: also called CD3ε
In words: SPR.

T1 sequence (P07766 23-126 limits assumed): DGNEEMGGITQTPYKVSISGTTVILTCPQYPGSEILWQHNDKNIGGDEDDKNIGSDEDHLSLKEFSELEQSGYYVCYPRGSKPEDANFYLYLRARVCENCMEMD

B1: TR01H081-E22Hh/none-Hi-Kn010G3/L0000-k0 (antibody, V domains shown)
VH: QVQLVESGGGLVQPGRSLRLSCAASGFTFSNAWMHWVRQAPGKGLEWVAQIKDKSQNYATYYAESVKGRFTISRADSKNSIYLQMNSLKTEDTAVYYCRYVHYAAGYGVDIWGQGTTVTVSS
VL: DIVMTQSPLSLPVTPGEPASISCRSSQSLVHSNRNTYLHWYQQKPGQAPRLLIYKVSNRFSGVPDRFSGSGSGTDFTLKISRVEAEDVGVYYCGQGTQVPYTFGQGTKLEIKR
notes: one-arm
Molecule B1 had a Kd of 15.6 nM.

B2: TR01H083-E22Hh/none-Hi-Kn010G3/L0000-k0 (antibody, V domains shown)
VH: B1 VH with Q56N
VL: B1 VL
notes: one-arm
In turn, B2 displayed a Kd of 6.83 nM.

B3: TR01H110-E2702GsKsc/none-Hi-E2704sE/L0011-k0 (antibody, V domains shown)
VH: B1 VH with L11V, R19K, A75D, I81L, I111A
VL: B1 VL with S28P
notes: one-arm
On to B3, for which the Kd worked out at 12.6 nM.

B4: TR01H099-E22Hh/none-Hi-Kn010G3/L0011-k0 (antibody, V domains shown)
VH: B1 VH with T60Q, A75D, I81L, I111A
VL: B1 VL with S28P
notes: one-arm
In the case of B4, the Kd stood at 77.4 nM.

B5: TR01H109-E22Hh/none-Hi-Kn010G3/L0011-k0 (antibody, V domains shown)
VH: B1 VH with Y62V, A75D, I81L, I111A
VL: B1 VL with S28P
notes: one-arm
In turn, B5 gave a dissociation constant (Kd) of 70.6 nM.

B6: TR01H083-E22Hh/none-Hi-Kn010G3/L0212-k0 (antibody, V domains shown)
VH: B1 VH with Q56N
VL: B1 VL with S25P, L29P, G94Y
notes: one-arm
B6: the Kd amounted to 0.0586 nM.

B7: TR01H083-E22Hh/none-Hi-Kn010G3/L0222-k0 (antibody, V domains shown)
VH: B1 VH with Q56N
VL: B1 VL with L29P, L38I, H39Q, G94Y
notes: one-arm
Molecule B7 registered a Kd of 9.42 nM.

B8: TR01H094-E22Hh/none-Hi-Kn010G3/L0011-k0 (antibody, V domains shown)
VH: B1 VH with K67S, A75D, I81L, I111A
VL: B1 VL with S28P
notes: one-arm
The molecule B8 came in with a Kd of 70 nM.

B9: TR01H101-E22Hh/none-Hi-Kn010G3/L0011-k0 (antibody, V domains shown)
VH: B1 VH with T60V, A75D, I81L, I111A
VL: B1 VL with S28P
notes: one-arm
In the case of B9, the Kd turned out to be 78.7 nM.

B10: TR01H105-E22Hh/none-Hi-Kn010G3/L0011-k0 (antibody, V domains shown)
VH: B1 VH with Y62L, A75D, I81L, I111A
VL: B1 VL with S28P
notes: one-arm
B10 showed a Kd of 69.5 nM.

B11: TR01H082-E22Hh/none-Hi-Kn010G3/L0000-k0 (antibody, V domains shown)
VH: B1 VH with A75D, I81L, I111A
VL: B1 VL
notes: one-arm
For B11, the affinity, expressed as Kd, was 73.7 nM.

B12: TR01H082-E22Hh/none-Hi-Kn010G3/L0201-k0 (antibody, V domains shown)
VH: B1 VH with A75D, I81L, I111A
VL: B1 VL with S28P, L29P
notes: one-arm
B12 had a Kd of 44.9 nM.

B13: TR01H096-E22Hh/none-Hi-Kn010G3/L0011-k0 (antibody, V domains shown)
VH: B1 VH with T60G, A75D, I81L, I111A
VL: B1 VL with S28P
notes: one-arm
Consider B13, for which the affinity, expressed as Kd, was 74.7 nM.

B14: TR01H084-E22Hh/none-Hi-Kn010G3/L0011-k0 (antibody, V domains shown)
VH: B1 VH with L11V, R16G
VL: B1 VL with S28P
notes: one-arm
Molecule B14 came in with a Kd of 19.8 nM.

B15: TR01H099-E2702GsKsc/none-Hi-E2704sE/L0011-k0 (antibody, V domains shown)
VH: B1 VH with T60Q, A75D, I81L, I111A
VL: B1 VL with S28P
notes: one-arm
Molecule B15 registered a Kd of 14.6 nM.

B16: TR01H103-E22Hh/none-Hi-Kn010G3/L0011-k0 (antibody, V domains shown)
VH: B1 VH with Y62G, A75D, I81L, I111A
VL: B1 VL with S28P
notes: one-arm
With B16, the affinity, expressed as Kd, was 77.2 nM.

B17: TR01H104-E22Hh/none-Hi-Kn010G3/L0011-k0 (antibody, V domains shown)
VH: B1 VH with Y62I, A75D, I81L, I111A
VL: B1 VL with S28P
notes: one-arm
The molecule B17 showed a Kd of 82.6 nM.

B18: TR01H083-E22Hh/none-Hi-Kn010G3/L0201-k0 (antibody, V domains shown)
VH: B1 VH with Q56N
VL: B1 VL with S28P, L29P
notes: one-arm
As to B18, binding was put at a Kd of 4.42 nM.

B19: TR01H100-E2702GsKsc/none-Hi-E2704sE/L0011-k0 (antibody, V domains shown)
VH: B1 VH with T60S, A75D, I81L, I111A
VL: B1 VL with S28P
notes: one-arm
Take B19: the Kd worked out at 11.1 nM.

B20: TR01H097-E22Hh/none-Hi-Kn010G3/L0011-k0 (antibody, V domains shown)
VH: B1 VH with T60L, A75D, I81L, I111A
VL: B1 VL with S28P
notes: one-arm
Regarding B20, the Kd came out at 87.6 nM.

B21: TR01H091-E22Hh/none-Hi-Kn010G3/L0011-k0 (antibody, V domains shown)
VH: B1 VH with R19K, A75D, I81L, I111A
VL: B1 VL with S28P
notes: one-arm
B21: the Kd stood at 66.7 nM.

B22: TR01H082-E22Hh/none-Hi-Kn010G3/L0203-k0 (antibody, V domains shown)
VH: B1 VH with A75D, I81L, I111A
VL: B1 VL with L29P, L38I
notes: one-arm
B22 registered a Kd of 40.7 nM.

B23: TR01H098-E22Hh/none-Hi-Kn010G3/L0011-k0 (antibody, V domains shown)
VH: B1 VH with T60P, A75D, I81L, I111A
VL: B1 VL with S28P
notes: one-arm
The molecule B23 registered a Kd of 91.4 nM.

B24: TR01H107-E22Hh/none-Hi-Kn010G3/L0011-k0 (antibody, V domains shown)
VH: B1 VH with Y62Q, A75D, I81L, I111A
VL: B1 VL with S28P
notes: one-arm
For B24, the Kd was determined as 69.1 nM.

B25: TR01H102-E22Hh/none-Hi-Kn010G3/L0011-k0 (antibody, V domains shown)
VH: B1 VH with Y62F, A75D, I81L, I111A
VL: B1 VL with S28P
notes: one-arm
Take B25: the Kd came out at 85.4 nM.

B26: TR01H083-E22Hh/none-Hi-Kn010G3/L0011-k0 (antibody, V domains shown)
VH: B1 VH with Q56N
VL: B1 VL with S28P
notes: one-arm
Molecule B26 registered a Kd of 6.7 nM.

B27: TR01H081-E22Hh/none-Hi-Kn010G3/L0201-k0 (antibody, V domains shown)
VH: B1 VH
VL: B1 VL with S28P, L29P
notes: one-arm
On to B27, for which binding was characterised by a dissociation constant (Kd) of 9.46 nM.

B28: TR01H114-E2702GsKsc/none-Hi-E2704sE/L0011-k0 (antibody, V domains shown)
VH: B1 VH with L11V, R16G, T60S
VL: B1 VL with S28P
notes: one-arm
Turning to B28, the affinity, expressed as Kd, was 4.22 nM.

B29: TR01H081-E22Hh/none-Hi-Kn010G3/L0011-k0 (antibody, V domains shown)
VH: B1 VH
VL: B1 VL with S28P
notes: one-arm
In the case of B29, binding was put at a Kd of 13.5 nM.

B30: TR01H082-E22Hh/none-Hi-Kn010G3/L0011-k0 (antibody, V domains shown)
VH: B1 VH with A75D, I81L, I111A
VL: B1 VL with S28P
notes: one-arm
On to B30, for which the dissociation constant (Kd) was determined as 59.5 nM.

B31: TR01H082-E22Hh/none-Hi-Kn010G3/L0222-k0 (antibody, V domains shown)
VH: B1 VH with A75D, I81L, I111A
VL: B1 VL with L29P, L38I, H39Q, G94Y
notes: one-arm
On to B31, for which the Kd amounted to 101 nM.

B32: TR01H108-E22Hh/none-Hi-Kn010G3/L0011-k0 (antibody, V domains shown)
VH: B1 VH with Y62T, A75D, I81L, I111A
VL: B1 VL with S28P
notes: one-arm
As to B32, binding was put at a Kd of 69.8 nM.

B33: TR01H084-E22Hh/none-Hi-Kn010G3/L0000-k0 (antibody, V domains shown)
VH: B1 VH with L11V, R16G
VL: B1 VL
notes: one-arm
For B33, the Kd was found to be 21.3 nM.

B34: TR01H093-E22Hh/none-Hi-Kn010G3/L0011-k0 (antibody, V domains shown)
VH: B1 VH with K67Q, A75D, I81L, I111A
VL: B1 VL with S28P
notes: one-arm
On to B34, for which the Kd is 68 nM.

B35: TR01H100-E22Hh/none-Hi-Kn010G3/L0011-k0 (antibody, V domains shown)
VH: B1 VH with T60S, A75D, I81L, I111A
VL: B1 VL with S28P
notes: one-arm
For the molecule B35, the Kd worked out at 62.5 nM.

B36: TR01H095-E22Hh/none-Hi-Kn010G3/L0011-k0 (antibody, V domains shown)
VH: B1 VH with T60F, A75D, I81L, I111A
VL: B1 VL with S28P
notes: one-arm
The molecule B36 displayed a dissociation constant (Kd) of 90.9 nM.

B37: TR01H090-E22Hh/none-Hi-Kn010G3/L0011-k0 (antibody, V domains shown)
VH: B1 VH with R16G, A75D, I81L, I111A
VL: B1 VL with S28P
notes: one-arm
The molecule B37 displayed a Kd of 69.5 nM.

B38: TR01H112-E2702GsKsc/none-Hi-E2704sE/L0011-k0 (antibody, V domains shown)
VH: B1 VH with L11V, R16G, T60Q
VL: B1 VL with S28P
notes: one-arm
In turn, B38 gave a dissociation constant (Kd) of 5.12 nM.

B39: TR01H106-E22Hh/none-Hi-Kn010G3/L0011-k0 (antibody, V domains shown)
VH: B1 VH with Y62P, A75D, I81L, I111A
VL: B1 VL with S28P
notes: one-arm
With B39, binding was characterised by a dissociation constant (Kd) of 100 nM.

B40: TR01H091-E2702GsKsc/none-Hi-E2704sE/L0011-k0 (antibody, V domains shown)
VH: B1 VH with R19K, A75D, I81L, I111A
VL: B1 VL with S28P
notes: one-arm
With B40, binding was characterised by a dissociation constant (Kd) of 13.9 nM.

B41: hCE115HA-G1dh//-Hi-Kn010G3/L0000-k0 (antibody, V domains shown)
VH: B1 VH with L11V, D53A, Q56N, A75D, I81L, A104G, G106Y, I111A
VL: B1 VL
notes: one-arm
In the case of B41, the Kd is 65 nM.

B42: TR01H084-E22Hh/none-Hi-Kn010G3/L0201-k0 (antibody, V domains shown)
VH: B1 VH with L11V, R16G
VL: B1 VL with S28P, L29P
notes: one-arm
As for B42, binding was characterised by a dissociation constant (Kd) of 16.5 nM.

B43: hCE115HA-E22stHh/none-Hi-stKn010G3/L0000-k0 (antibody, V domains shown)
VH: B1 VH with L11V, D53A, Q56N, A75D, I81L, A104G, G106Y, I111A
VL: B1 VL
notes: one-arm
B43: binding was characterised by a dissociation constant (Kd) of 51.7 nM.

B44: TR01H082-E22Hh/none-Hi-Kn010G3/L0212-k0 (antibody, V domains shown)
VH: B1 VH with A75D, I81L, I111A
VL: B1 VL with S25P, L29P, G94Y
notes: one-arm
As to B44, the Kd came out at 4.75 nM.

B45: TR01H111-E2702GsKsc/none-Hi-E2704sE/L0011-k0 (antibody, V domains shown)
VH: B1 VH with L11V, R16G, R19K
VL: B1 VL with S28P
notes: one-arm
In turn, B45 gave a Kd of 4.91 nM.

B46: TR01H092-E22Hh/none-Hi-Kn010G3/L0011-k0 (antibody, V domains shown)
VH: B1 VH with K67A, A75D, I81L, I111A
VL: B1 VL with S28P
notes: one-arm
B46 showed a Kd of 72.1 nM.
